# Assay results taken from article PMC4490436.
# No end group written: not given here. *: point of attachment. OAll = C=CCO*
# Legend:
# [1] = target: CXCR4 receptor (human (endogenous in CCRF-CEM)) (UniProt P61073)
# [2] = target: CXCR4 receptor (human (endogenous in CCRF-CEM)) (UniProt P61073); remark: listed apart in the source
# UniProt P61073, sequence (P61073 whole entry): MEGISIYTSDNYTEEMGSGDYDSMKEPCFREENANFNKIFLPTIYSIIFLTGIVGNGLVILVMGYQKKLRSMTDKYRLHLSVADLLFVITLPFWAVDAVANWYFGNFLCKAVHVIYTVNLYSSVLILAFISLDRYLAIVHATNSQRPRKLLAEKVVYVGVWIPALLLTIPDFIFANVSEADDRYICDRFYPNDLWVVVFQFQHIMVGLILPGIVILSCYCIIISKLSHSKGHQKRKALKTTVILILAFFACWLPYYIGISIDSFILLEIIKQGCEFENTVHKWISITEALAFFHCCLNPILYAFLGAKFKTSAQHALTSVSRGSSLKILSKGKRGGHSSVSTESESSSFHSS
Binder,migration index of CCRF-CEM cells towards CXCL12 (100 ng/mL) in a Transwell assay; 1.75-fold without peptide [1],"increase of the cAMP level in CCRF-CEM cells in the presence of CXCL12 (100 ng/mL) and forskolin (1 uM); PepE at 1 and 10 uM (20% at 1 uM), dose dependent [2]"
YGECPCK-OAll (cysteine pairing not given here) [PepK],1.55 fold,
YGECPCE-OAll (cysteine pairing not given here) [PepE],1.35 fold,65%
